B1: Azoarcus group I ribozyme (parent)
chain: GUGCCUUGCGCCGGGAAACCACGCAAGGGAUGGUGUCAAAUUCGGCGAAACCUAAGCGCCCGCCCGGGCGUAUGGCAACGCCGAGCCAAGCUUCGGCGCCUGCGCCGAUGAAGGUGUAGAGACUAGACGGCACCCACCUAAGGCAAACGCUAUGGUGAAGGCAUAGUCCAGGGAGUGGCGAAAGUCACACAAACCGG

Variants of: B1
Test: reverse-splicing fitness (ratio to wild type); higher = more active; in vitro selection; Mg2+ level not given
Outline: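 An in vitro group I ribozyme library with randomized positions was T7-transcribed and gel-purified. In triplicate, 10 pmol RNA in EPPS pH 7.5 was reacted with 50 pmoles of a 30-nt RNA substrate for 1 h at 37 °C across several added MgCl2 levels (1–48 mM), then stopped with EDTA. Products were reverse transcribed from a substrate-complementary primer, PCR-amplified and sequenced (HiSeq 4000). Fitness is a variant's read proportion after selection over that before, normalised to wild type.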

Question: With GUGCCUUGCGCCGGGAAACCACGCAAGGGAUGGUGUCAAAUUCGGCGAAACCUAAGCGCCCGCCCGGGCGUAUGGCAACGCCGAGCCAAGCUUCGGCGCCUGCGCCGAUGGAGGUGUAGUGACUAGACGGCACCCACCUAAGGCGAACGGUAUGGUGAAGGCAUAGUCCAGGGAGUGGCGAAAGUCACACAAACCGG [A111G A120U A145G C150G] as the variant, how does the reverse-splicing fitness read?
Answer: 0.0771

Question: Which reverse-splicing fitness does the source give for GUGCCUUGCGCCGGGAAACCACGCAAGGGAUGGUGUCAAAUUCGGCGAAACCUAAGCGCCCGCCCGGGCGUAUGGCAACGCCGAGCCAAGCUUCGGCGCCUGCGCCGAUGGAGGUGUAGUGACUAGACGGCACCCACCUAAGGCGAACGGUAUGGUGAAGGCAUAGUCAAGGGAGUGGCGAAAGUCACACAAACCGG [A111G A120U A145G C150G C169A] here?
Answer: 0.00794

Question: For GUGCCUUGCGCCGGGAAACCACGCAAGGGAUGGUGUCAAAUUCGGCGAAACCUAAGCGCCCGCCCGGGCGUAUGGCAACGCCGAGCCAAGCUUCGGCGCCUGCGCCGAUGGAGGUGUAGUGACUAGACGGCACCCACCUAAGGCGAACGGUAUGGUGAAGGCAUAGUCAAGGGAGAGGCGAAAGUCACACAAACCGG [A111G A120U A145G C150G C169A U176A], which reverse-splicing fitness is on record?
Answer: 0.00856

Question: For GUGCCUUGCGCCGGGAAACCACGCAAGGGAUGGUGUCAAAUUCGGCGAAACCUAAGCGCCCGCCCGGGCGUAUGGCAACGCCGAGCCAAGCUUCGGCGCCUGCGCCGAUGGAGGUGUAGUGACUAGACGGCACCCACCUAAGGCGAACGGUAUGGUGAAGGCAUAGUCAAGGGAGCGGCGAAAGUCACACAAACCGG [A111G A120U A145G C150G C169A U176C], which reverse-splicing fitness is on record?
Answer: 0.00599

Question: For GUGCCUUGCGCCGGGAAACCACGCAAGGGAUGGUGUCAAAUUCGGCGAAACCUAAGCGCCCGCCCGGGCGUAUGGCAACGCCGAGCCAAGCUUCGGCGCCUGCGCCGAUGGAGGUGUAGUGACUAGACGGCACCCACCUAAGGCGAACGGUAUGGUGAAGGCAUAGUCAAGGGAGGGGCGAAAGUCACACAAACCGG [A111G A120U A145G C150G C169A U176G], which reverse-splicing fitness is on record?
Answer: 0.00395

Question: With GUGCCUUGCGCCGGGAAACCACGCAAGGGAUGGUGUCAAAUUCGGCGAAACCUAAGCGCCCGCCCGGGCGUAUGGCAACGCCGAGCCAAGCUUCGGCGCCUGCGCCGAUGGAGGUGUAGUGACUAGACGGCACCCACCUAAGGCGAACGGUAUGGUGAAGGCAUAGUCGAGGGAGUGGCGAAAGUCACACAAACCGG [A111G A120U A145G C150G C169G] as the variant, how does the reverse-splicing fitness read?
Answer: 0.0123

Question: For GUGCCUUGCGCCGGGAAACCACGCAAGGGAUGGUGUCAAAUUCGGCGAAACCUAAGCGCCCGCCCGGGCGUAUGGCAACGCCGAGCCAAGCUUCGGCGCCUGCGCCGAUGGAGGUGUAGUGACUAGACGGCACCCACCUAAGGCGAACGGUAUGGUGAAGGCAUAGUCGAGGGAGAGGCGAAAGUCACACAAACCGG [A111G A120U A145G C150G C169G U176A], which reverse-splicing fitness is on record?
Answer: 0.00719

Question: Which reverse-splicing fitness does the source give for GUGCCUUGCGCCGGGAAACCACGCAAGGGAUGGUGUCAAAUUCGGCGAAACCUAAGCGCCCGCCCGGGCGUAUGGCAACGCCGAGCCAAGCUUCGGCGCCUGCGCCGAUGGAGGUGUAGUGACUAGACGGCACCCACCUAAGGCGAACGGUAUGGUGAAGGCAUAGUCGAGGGAGCGGCGAAAGUCACACAAACCGG [A111G A120U A145G C150G C169G U176C] here?
Answer: 0.00396

Question: Which reverse-splicing fitness does the source give for GUGCCUUGCGCCGGGAAACCACGCAAGGGAUGGUGUCAAAUUCGGCGAAACCUAAGCGCCCGCCCGGGCGUAUGGCAACGCCGAGCCAAGCUUCGGCGCCUGCGCCGAUGGAGGUGUAGUGACUAGACGGCACCCACCUAAGGCGAACGGUAUGGUGAAGGCAUAGUCGAGGGAGGGGCGAAAGUCACACAAACCGG [A111G A120U A145G C150G C169G U176G] here?
Answer: 0.00311

Question: For GUGCCUUGCGCCGGGAAACCACGCAAGGGAUGGUGUCAAAUUCGGCGAAACCUAAGCGCCCGCCCGGGCGUAUGGCAACGCCGAGCCAAGCUUCGGCGCCUGCGCCGAUGGAGGUGUAGUGACUAGACGGCACCCACCUAAGGCGAACGGUAUGGUGAAGGCAUAGUCUAGGGAGUGGCGAAAGUCACACAAACCGG [A111G A120U A145G C150G C169U], which reverse-splicing fitness is on record?
Answer: 0.0149

Question: With GUGCCUUGCGCCGGGAAACCACGCAAGGGAUGGUGUCAAAUUCGGCGAAACCUAAGCGCCCGCCCGGGCGUAUGGCAACGCCGAGCCAAGCUUCGGCGCCUGCGCCGAUGGAGGUGUAGUGACUAGACGGCACCCACCUAAGGCGAACGGUAUGGUGAAGGCAUAGUCUAGGGAGAGGCGAAAGUCACACAAACCGG [A111G A120U A145G C150G C169U U176A] as the variant, how does the reverse-splicing fitness read?
Answer: 0.00497

Question: For GUGCCUUGCGCCGGGAAACCACGCAAGGGAUGGUGUCAAAUUCGGCGAAACCUAAGCGCCCGCCCGGGCGUAUGGCAACGCCGAGCCAAGCUUCGGCGCCUGCGCCGAUGGAGGUGUAGUGACUAGACGGCACCCACCUAAGGCGAACGGUAUGGUGAAGGCAUAGUCUAGGGAGCGGCGAAAGUCACACAAACCGG [A111G A120U A145G C150G C169U U176C], which reverse-splicing fitness is on record?
Answer: 0.00697

Question: For GUGCCUUGCGCCGGGAAACCACGCAAGGGAUGGUGUCAAAUUCGGCGAAACCUAAGCGCCCGCCCGGGCGUAUGGCAACGCCGAGCCAAGCUUCGGCGCCUGCGCCGAUGGAGGUGUAGUGACUAGACGGCACCCACCUAAGGCGAACGGUAUGGUGAAGGCAUAGUCUAGGGAGGGGCGAAAGUCACACAAACCGG [A111G A120U A145G C150G C169U U176G], which reverse-splicing fitness is on record?
Answer: 0.00319

Question: With GUGCCUUGCGCCGGGAAACCACGCAAGGGAUGGUGUCAAAUUCGGCGAAACCUAAGCGCCCGCCCGGGCGUAUGGCAACGCCGAGCCAAGCUUCGGCGCCUGCGCCGAUGGAGGUGUAGUGACUAGACGGCACCCACCUAAGGCGAACGGUAUGGUGAAGGCAUAGUCCAGGGAGAGGCGAAAGUCACACAAACCGG [A111G A120U A145G C150G U176A] as the variant, how does the reverse-splicing fitness read?
Answer: 0.00779

Question: Which reverse-splicing fitness does the source give for GUGCCUUGCGCCGGGAAACCACGCAAGGGAUGGUGUCAAAUUCGGCGAAACCUAAGCGCCCGCCCGGGCGUAUGGCAACGCCGAGCCAAGCUUCGGCGCCUGCGCCGAUGGAGGUGUAGUGACUAGACGGCACCCACCUAAGGCGAACGGUAUGGUGAAGGCAUAGUCCAGGGAGCGGCGAAAGUCACACAAACCGG [A111G A120U A145G C150G U176C] here?
Answer: 0.0188
